Test results as given in article PMC9834311.

Biological target: E. coli F1Fo ATP synthase subunit b (cysteine-free enzyme) (E. coli) (UniProt P0ABA0)
Test: cryo-EM structure; detergent-solubilised (digitonin) cysteine-free E. coli F1Fo ATP synthase (WT at 11 μM, εΔCTH2 mutant at 9 μM) with 10 mM MgATP, pH 8.0, 22 °C, 45 s in all until freezing

- stoichiometry N: 2
Substance: E. coli F1Fo ATP synthase subunit b (cysteine-free enzyme) (from UniProt P0ABA0 1-156) (natural protein)
